Test system: TGFβ1 C4S Small Latent Complex (SLC)
Sequence (chain, as listed by the source): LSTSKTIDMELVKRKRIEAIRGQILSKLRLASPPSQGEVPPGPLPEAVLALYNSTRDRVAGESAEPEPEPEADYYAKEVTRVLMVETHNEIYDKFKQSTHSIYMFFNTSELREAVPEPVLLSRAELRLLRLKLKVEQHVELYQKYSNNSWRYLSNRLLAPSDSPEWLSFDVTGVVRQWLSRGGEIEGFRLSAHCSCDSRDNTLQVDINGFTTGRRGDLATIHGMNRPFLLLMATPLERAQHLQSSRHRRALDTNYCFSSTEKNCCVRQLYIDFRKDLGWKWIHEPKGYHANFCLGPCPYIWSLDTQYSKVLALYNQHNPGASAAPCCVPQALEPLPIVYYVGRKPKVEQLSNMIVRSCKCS

kallikrein
kallikrein digestion of LAP (gel): LAP can be cleaved by kallikrein into a R^58 LAP-D fragment and a L^59 LAP-D fragment
